In one series the target is T1, IL-4 (Homo sapiens) (UniProt P05112).
T1 sequence: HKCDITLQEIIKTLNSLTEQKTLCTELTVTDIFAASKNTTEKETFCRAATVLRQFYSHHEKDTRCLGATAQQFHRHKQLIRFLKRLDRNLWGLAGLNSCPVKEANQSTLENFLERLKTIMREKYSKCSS
As to the kind of experiment: filter.

Series [1] concerns the target TNF-alpha (Homo sapiens) (UniProt P01375). Nature of the series: filter.
Series [2] shares this target. Nature of the series: competition. Conditions: random RNA control, U937 cells.
Another series deals with T2, TNF-alpha (Mus musculus) (UniProt P06804).
T2 sequence: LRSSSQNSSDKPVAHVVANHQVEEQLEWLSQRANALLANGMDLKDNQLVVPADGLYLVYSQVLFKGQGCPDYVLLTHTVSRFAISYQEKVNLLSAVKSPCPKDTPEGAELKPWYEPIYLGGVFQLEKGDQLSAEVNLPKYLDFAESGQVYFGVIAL
Nature of the series: filter. As to conditions: specificity control.

The target of a further series is T3, TNF-beta (Homo sapiens) (UniProt P01374).
T3 sequence: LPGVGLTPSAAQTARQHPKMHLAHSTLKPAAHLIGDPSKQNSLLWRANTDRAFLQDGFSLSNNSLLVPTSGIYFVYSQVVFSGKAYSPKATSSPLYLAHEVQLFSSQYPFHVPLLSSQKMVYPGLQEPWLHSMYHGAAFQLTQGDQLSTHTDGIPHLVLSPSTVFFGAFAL
As to the kind of experiment: filter. Conditions: specificity control.

A further series has as its target T4, RANTES (Homo sapiens) (UniProt P13501).
T4 sequence: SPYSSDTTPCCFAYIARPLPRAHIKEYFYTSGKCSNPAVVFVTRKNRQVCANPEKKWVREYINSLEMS
Nature of the series: filter.

Another series addresses T5, IFN-gamma (Homo sapiens) (UniProt P01579).
T5 sequence: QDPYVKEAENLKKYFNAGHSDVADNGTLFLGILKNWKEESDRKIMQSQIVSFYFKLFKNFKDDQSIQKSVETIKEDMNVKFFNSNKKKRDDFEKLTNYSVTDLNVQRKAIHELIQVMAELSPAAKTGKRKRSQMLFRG
Nature of the series: filter.

The target in the next series is T6, IFN-gamma (Mus musculus) (UniProt P01580).
T6 sequence: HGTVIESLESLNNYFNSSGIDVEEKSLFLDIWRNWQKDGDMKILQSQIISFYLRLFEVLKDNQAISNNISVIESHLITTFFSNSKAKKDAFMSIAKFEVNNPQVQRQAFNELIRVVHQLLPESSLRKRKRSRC
Nature of the series: filter. Conditions: mouse protein.

Where [3] appears, read: 2'-F all C, 2'-NH2 all U, random pool.
Setting [4] is: 2'-NH2 all C and U, random pool.
Setting [5] is: 2'-F all C, 2'-NH2 all U, round 17 pool.
The mark [6] stands for this setting: 2'-F all C and U, round 17 pool.

Sequence of TNF-alpha (Homo sapiens) (P01375 77-233): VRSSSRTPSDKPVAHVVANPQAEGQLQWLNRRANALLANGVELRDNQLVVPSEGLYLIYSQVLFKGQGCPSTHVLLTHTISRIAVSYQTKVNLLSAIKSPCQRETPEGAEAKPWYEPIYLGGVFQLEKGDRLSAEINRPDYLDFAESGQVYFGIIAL

As a reminder, the Kd is the free concentration of one partner at which half of the binding sites on the other are occupied at equilibrium, for simple one-to-one binding. As for “GGGAGACAAGAAUAAACGCUCAANNNNNNNNNNNNNNNNNNNNNNNNNNNNNNNNNNNNNNNNUUCGACAGGAGGCUCACAACAGGC [40N8 random pool 2'F/NH2]”, the Kd with IL-4 (Homo sapiens) (setting [3]) was over 20 µM.
In the series with IL-4 (Homo sapiens) (2'-F all C and U, random pool), “GGGAGACAAGAAUAAACGCUCAANNNNNNNNNNNNNNNNNNNNNNNNNNNNNNNNNNNNNNNNUUCGACAGGAGGCUCACAACAGGC [40N8 random pool 2'F]” yielded a Kd of over 20 µM.
Sequence “GGGAGACAAGAAUAAACGCUCAANNNNNNNNNNNNNNNNNNNNNNNNNNNNNNNNNNNNNNNNUUCGACAGGAGGCUCACAACAGGC [40N8 random pool 2'NH2]” gave a Kd in the series with IL-4 (Homo sapiens) (setting [4]) of over 20 µM.
In the series with IL-4 (Homo sapiens) (setting [5]), “GGGAGACAAGAAUAAACGCUCAANNNNNNNNNNNNNNNNNNNNNNNNNNNNNNNNNNNNNNNNUUCGACAGGAGGCUCACAACAGGC [IL-4 round 17 pool 2'F/NH2]” returned a Kd of 0.055 µM.
“GGGAGACAAGAAUAAACGCUCAANNNNNNNNNNNNNNNNNNNNNNNNNNNNNNNNNNNNNNNNUUCGACAGGAGGCUCACAACAGGC [IL-4 round 17 pool 2'F]” showed a Kd with IL-4 (Homo sapiens) (setting [6]) of 0.03 µM.
The sequence “GGGAGACAAGAAUAAACGCUCAANNNNNNNNNNNNNNNNNNNNNNNNNNNNNNNNNNNNNNNNUUCGACAGGAGGCUCACAACAGGC [IL-4 round 17 pool 2'NH2]” came in with a Kd in the series with IL-4 (Homo sapiens) (2'-NH2 all C and U, round 17 pool, high filter background, earlier round about 100 nM) of 1 µM.
The term Ki denotes the equilibrium dissociation constant of an inhibitor or competing ligand from its target. Regarding “GGGAGCUCAGAAUAAACGCUCAANNNNNNNNNNNNNNNNNNNNNNNNNNNNNNUUCGACAUGAGGCCCGGAUCCGGC [TNF random RNA]”, in the series with TNF-alpha (Homo sapiens) [1] (estimated, flat curves up to 10 uM protein), the Kd was over 1000 µM. In the series with TNF-alpha (Homo sapiens) [2], this sequence registered a Ki of over 1000 µM.
Consider “GGGAGCUCAGAAUAAACGCUCAANNNNNNNNNNNNNNNNNNNNNNNNNNNNNNUUCGACAUGAGGCCCGGAUCCGGC [TNF round 6 C-SELEX pool]”, for which the Kd in the series with TNF-alpha (Homo sapiens) [1] (C-SELEX final pool) came out at 0.4 µM.
“GGGAGCUCAGAAUAAACGCUCAANNNNNNNNNNNNNNNNNNNNNNNNNNNNNNUUCGACAUGAGGCCCGGAUCCGGC [TNF round 23 A-SELEX pool]”: the equilibrium dissociation constant (Kd) with TNF-alpha (Homo sapiens) [1] (round 23A pool) was 0.7 µM; with TNF-alpha (Mus musculus), over 1000 µM; in the series with TNF-beta (Homo sapiens), over 1000 µM.
For the sequence “GGGAGGACGATGCGGNNNNNNNNNNNNNNNNNNNNNNNNNNNNNNNNNNNNNNNNCAGACGACTCGCCCGA [RANTES random ssDNA pool 40N7]”, the Kd with RANTES (Homo sapiens) (starting pool, 150 mM NaCl) was found to be 3 µM.
“GGGAGGACGATGCGGNNNNNNNNNNNNNNNNNNNNNNNNNNNNNNNNNNNNNNNNCAGACGACTCGCCCGA [RANTES round 19 ssDNA pool]”: in the series with RANTES (Homo sapiens) (round 19, 150 mM NaCl, text says 20 nM), the Kd was 0.018 µM.
In the series with IFN-gamma (Homo sapiens) (setting [3]), “GGGAGGACGAUGCGGNNNNNNNNNNNNNNNNNNNNNNNNNNNNNNNNNNNNNNNNCAGACGACUCGCCCGA [40N7 random pool 2'F/NH2]” had a Kd of over 0.7 µM.
In the series with IFN-gamma (Homo sapiens) (2'-F all C and U, random pool), “GGGAGGACGAUGCGGNNNNNNNNNNNNNNNNNNNNNNNNNNNNNNNNNNNNNNNNCAGACGACUCGCCCGA [40N7 random pool 2'F]” had a Kd of over 0.7 µM.
Consider “GGGAGGACGAUGCGGNNNNNNNNNNNNNNNNNNNNNNNNNNNNNNNNNNNNNNNNCAGACGACUCGCCCGA [40N7 random pool 2'NH2]”, for which, in the series with IFN-gamma (Homo sapiens) (setting [4]), the Kd is over 0.7 µM.
On to “GGGAGGACGAUGCGGNNNNNNNNNNNNNNNNNNNNNNNNNNNNNNNNNNNNNNNNCAGACGACUCGCCCGA [IFN-gamma round 17 pool 2'F/NH2]”, for which the Kd with IFN-gamma (Homo sapiens) (setting [5]) was determined as 0.115 µM; with IFN-gamma (Mus musculus) (2'-F all C, 2'-NH2 all U), 0.175 µM.
As to “GGGAGGACGAUGCGGNNNNNNNNNNNNNNNNNNNNNNNNNNNNNNNNNNNNNNNNCAGACGACUCGCCCGA [IFN-gamma round 17 pool 2'F]”, the Kd with IFN-gamma (Homo sapiens) (setting [6]) amounted to 0.07 µM; with IFN-gamma (Mus musculus) (2'-F all C and U) it was 0.41 µM.
In the case of “GGGAGGACGAUGCGGNNNNNNNNNNNNNNNNNNNNNNNNNNNNNNNNNNNNNNNNCAGACGACUCGCCCGA [IFN-gamma round 17 pool 2'NH2]”, the Kd with IFN-gamma (Homo sapiens) (2'-NH2 all C and U, round 17 pool) worked out at 0.02 µM; in the series with IFN-gamma (Mus musculus) (2'-NH2 all C and U), 0.085 µM.

These data come from US5972599.
